Results on 25 molecules are retold here after patent US20180237497A1 (CANCER RESEARCH TECHNOLOGY, published 2018).

First the molecules themselves.
B1: domain 11^AB3 P1597H K1631W (receptor)
chain: MKSNEHDDCQVTNPSTGHLFDLSSLSGRAGFTAAYSKSGVVYMSICGENENCPPGVGACFGQTRISVGKANKRLRYVDQVLQLVYKDGSHCPSKSGLSYKSVISFVCRPEAGPTNRPMLISLDWQTCTLFFSWHTPLACEQATECSV
notes: See m5
B2: domain 11^AB3 Q1569R P1597K S1602H G1603K (receptor)
chain: B1 chain with Q62R, H90K, S95H, G96K, W124K
notes: See m5
B3: domain 11^AB5 P1597A (receptor)
chain: B1 chain with S36A, S38G, G39W, V40G, H90A, W124K
notes: See m5
B4: domain 11^AB5 P1597S (receptor)
chain: B1 chain with S36A, S38G, G39W, V40G, H90S, W124K
notes: See m5
B5: domain 11^AB3 Q1569R P1597K S1602H (receptor)
chain: B1 chain with Q62R, H90K, S95H, W124K
notes: See m5
B6: domain 11^AB3 Q1569R P1597K (receptor)
chain: B1 chain with Q62R, H90K, W124K
notes: See m5
B7: domain 11^AB5 P1597K S1602H (receptor)
chain: B1 chain with S36A, S38G, G39W, V40G, H90K, S95H, W124K
notes: See m5
B8: domain 11^AB5 P1597N (receptor)
chain: B1 chain with S36A, S38G, G39W, V40G, H90N, W124K
notes: See m5
B9: domain 11^AB5 P1597Q (receptor)
chain: B1 chain with S36A, S38G, G39W, V40G, H90Q, W124K
notes: See m5
B10: domain 11^AB5 P1597K (receptor)
chain: B1 chain with S36A, S38G, G39W, V40G, H90K, W124K
notes: See m5
B11: domain 11^AB3 P1597K S1602H (receptor)
chain: B1 chain with H90K, S95H, W124K
notes: See m5
B12: domain 11^AB5 P1597L (receptor)
chain: B1 chain with S36A, S38G, G39W, V40G, H90L, W124K
notes: See m5
B13: domain 11^AB5 S1600Y (receptor)
chain: B1 chain with S36A, S38G, G39W, V40G, H90P, S93Y, W124K
notes: See m5
B14: domain 11^AB5 S1600L (receptor)
chain: B1 chain with S36A, S38G, G39W, V40G, H90P, S93L, W124K
notes: See m5
B15: domain 11^AB5 S1600N (receptor)
chain: B1 chain with S36A, S38G, G39W, V40G, H90P, S93N, W124K
notes: See m5
B16: domain 11^AB5 S1602N (receptor)
chain: B1 chain with S36A, S38G, G39W, V40G, H90P, S95N, W124K
notes: See m5
B17: domain 11^AB5 Q1632K (receptor)
chain: B1 chain with S36A, S38G, G39W, V40G, H90P, W124K, Q125K
notes: See m5; HI loop mutant
B18: domain 11^AB5 Q1632E (receptor)
chain: B1 chain with S36A, S38G, G39W, V40G, H90P, W124K, Q125E
notes: See m5; HI loop mutant
B19: domain 11^AB5 P1599V (receptor)
chain: B1 chain with S36A, S38G, G39W, V40G, H90P, P92V, W124K
notes: See m5; the asterisk is not explained
B20: domain 11^AB5 S1600A (receptor)
chain: B1 chain with S36A, S38G, G39W, V40G, H90P, S93A, W124K
notes: See m5
B21: domain 11^AB5 Q1632L (receptor)
chain: B1 chain with S36A, S38G, G39W, V40G, H90P, W124K, Q125L
notes: See m5; HI loop mutant
B22: domain 11^AB5 S1602A (receptor)
chain: B1 chain with S36A, S38G, G39W, V40G, H90P, S95A, W124K
notes: See m5
B23: domain 11^AB5 S1600V (receptor)
chain: B1 chain with S36A, S38G, G39W, V40G, H90P, S93V, W124K
notes: See m5
B24: domain 11^AB5 Q1632A (receptor)
chain: B1 chain with S36A, S38G, G39W, V40G, H90P, W124K, Q125A
notes: See m5; HI loop mutant
B25: domain 11^AB5 T1633A (receptor)
chain: B1 chain with S36A, S38G, G39W, V40G, H90P, W124K, T126A
notes: See m5; HI loop mutant

Residue numbers refer to the chain shown, from its start. Names and notes keep the numbering of the source.

One experiment deals with T1, human IGF2^1-67 (mature insulin-like growth factor 2) (human, UniProt P01344 25-91, biotinylated (site not stated) where immobilised on the chip (Tables 1-4)).
T1 construct: mature; also called mature IGF2; biotinylated IGF2
T1 sequence (P01344 25-91): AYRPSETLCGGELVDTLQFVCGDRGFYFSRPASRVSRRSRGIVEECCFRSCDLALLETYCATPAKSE
The experiment in a line: SPR kinetic, biotin-IGF2 on chip, pH 7.4. The method, then:
(§1) Final kinetic analysis of mutants by SPR was conducted using a Biacore T200 biosensor at 25° C. in either HBS-EP (10 mM HEPES pH 7.4, 150 mM NaCl, 3 mM EDTA, and 0.005% (v/v) surfactant P20) or MES-EP (20 mM MES pH 6.5, 150 mM NaCl, 3 mM EDTA, and 0.005% (v/v) surfactant P20) at a flow-rate of 40 μL min⁻¹. […] For the analysis of the Fc-domain 11^AB5 interaction, approximately 50 RU of a biotinylated IGF2:biotinylated ubiquitin mixture (1:8 proportion) was immobilized on the CM5-streptavidin chip. This interaction was also analysed by immobilizing the Fc-domain 11^AB5 and Fc-domain 11^AB5-RHH (or Fc-domain 11^I1572A as control) by Human Antibody Capture (monoclonal mouse anti-human IgG antibody immobilised on a CM5 chip by amine coupling, GE Healthcare) with and without human IgG1 Fc fragment (Bethyl Laboratories, UK) in the control flow cell. […] T200 BiaEvaluation software (GE Healthcare) was used to fit the resulting curves according to a 1:1 binding model. Steady state affinities were determined using the kinetic data, taking the response average at 5 seconds before injection end and for 5 seconds average. Thermodynamic data was performed across the temperature range of 10° C. to 30° C., van't Hoff and Erying plots generated and ΔH, −TΔS and ΔG values determined as previously described.
A general note: Surface plasmon resonance follows binding to a sensor surface in real time, without labels.
A word on the Kd: it is the free concentration of one partner at which half of the binding sites on the other are occupied at equilibrium, for simple one-to-one binding. Broadly, the koff is the first-order rate constant of dissociation. Read a low koff as a long-lived complex. The term kon denotes the second-order rate constant of association. Low values mean slower complex formation, high ones faster complex formation. In turn, B1 returned a Kd of 17.6 nM, a koff of 0.348 s⁻¹ and a kon of 1.97e+07 M⁻¹ s⁻¹.

As for B2, the Kd turned out to be 0.78 nM, the koff was 0.0171 s⁻¹ and the kon stood at 2.08e+07 M⁻¹ s⁻¹.

B3 showed a Kd of 9.07 nM, a koff of 0.0174 s⁻¹ and a kon of 1.9e+06 M⁻¹ s⁻¹.

As for B4, binding was put at a Kd of 4.19 nM, the koff is 0.0193 s⁻¹ and the kon came to 5e+06 M⁻¹ s⁻¹.

For the molecule B5, binding was put at a Kd of 0.79 nM, the off-rate constant (koff) turned out to be 0.016 s⁻¹ and the kon is 2.01e+07 M⁻¹ s⁻¹.

For the molecule B6, binding was characterised by a dissociation constant (Kd) of 1.34 nM, the koff worked out at 0.0241 s⁻¹ and the kon amounted to 2e+07 M⁻¹ s⁻¹.

Molecule B7 displayed a Kd of 4.62 nM, a koff of 0.0096 s⁻¹ and a kon of 2.09e+06 M⁻¹ s⁻¹.

As to B8, the Kd was found to be 4.13 nM, the koff was 0.018 s⁻¹ and the association rate constant (kon) is 4.72e+06 M⁻¹ s⁻¹.

In the case of B9, the Kd stood at 3.83 nM, the koff amounted to 0.0203 s⁻¹ and the kon was 6.53e+06 M⁻¹ s⁻¹.

Turning to B10, the Kd was 1.94 nM, the off-rate (koff) stood at 0.012 s⁻¹ and the kon amounted to 9.54e+06 M⁻¹ s⁻¹.

The molecule B11 came in with a Kd of 3.73 nM, a koff of 0.0102 s⁻¹ and a kon of 2.74e+06 M⁻¹ s⁻¹.

B12 showed a Kd of 3.86 nM, a koff of 0.015 s⁻¹ and a kon of 4.18e+06 M⁻¹ s⁻¹.

The next experiment addresses T1, human IGF2^1-67 (mature insulin-like …). The experiment in a line: SPR kinetic, biotin-IGF2 on chip, pH 7.4. The source holds these as a separate data set.
Excerpt: (§2) Surface plasmon resonance (SPR) binding analysis of recombinant M6P/IGF2R domain 11 mutants interaction with IGF2. Kon indicates association (on) rate; koff, dissociation (off) rate; RU, response units. Binding to IGF2 assessed with BIAcore T200 using purified biotinylated IGF2 and IGF1 on a streptavidin biosensor chip. Recombinant proteins were expressed either in E. coli and/or P. pastoris. All the mutants in the FG and CD loops are on the domain 11^AB5 background for the AB loop unless otherwise stated. All experiments were carried out at 25° C. in HBS-EP buffer (pH 7.4), were repeated 2-5 times on two independent BIAcore chips. nd=not determined. Data for KD expressed as mean of each experiment, and means of kon and koff are shown.
as §1, with “average.” for “average. Thermodynamic data was performed across the temperature range of 10° C. to 30° C., van't Hoff and Erying plots generated and ΔH, −TΔS and ΔG values determined as previously described.”
Consider B13, for which the Kd is over 200 nM and the koff is over 0.2 s⁻¹.

Molecule B14 registered a Kd of over 200 nM and a koff of over 0.2 s⁻¹.

B15 registered a Kd of 24.4 nM, a koff of 0.091 s⁻¹ and a kon of 3.95e+06 M⁻¹ s⁻¹.

B16: the Kd amounted to 4.75 nM, the koff was found to be 0.0112 s⁻¹ and the kon is 2.38e+06 M⁻¹ s⁻¹.

For B17, the Kd was found to be 11.1 nM, the koff is 0.0212 s⁻¹ and the kon turned out to be 1.96e+06 M⁻¹ s⁻¹.

For B18, binding was characterised by a dissociation constant (Kd) of 39.8 nM, the koff turned out to be 0.0202 s⁻¹ and the kon was 520000 M⁻¹ s⁻¹.

B19 registered a Kd of over 100 nM and a koff of over 0.1 s⁻¹.

As to B20, the Kd worked out at 89.1 nM, the koff is 0.213 s⁻¹ and the kon is 2.39e+06 M⁻¹ s⁻¹.

B21 had a Kd of 5.75 nM, a koff of 0.0175 s⁻¹ and a kon of 3.18e+06 M⁻¹ s⁻¹.

B22 gave a Kd of 16.5 nM, a koff of 0.025 s⁻¹ and a kon of 1.57e+06 M⁻¹ s⁻¹.

In turn, B23 gave a Kd of over 200 nM and a koff of over 0.2 s⁻¹.

In the case of B24, the affinity, expressed as Kd, was 3.76 nM; the koff was found to be 0.0167 s⁻¹; the kon came out at 4.5e+06 M⁻¹ s⁻¹.

B25 came in with a Kd of 26.4 nM, a koff of 0.0196 s⁻¹ and an on-rate constant (kon) of 800000 M⁻¹ s⁻¹.

Another experiment shares this target. Briefly: SPR steady state, biotin-IGF2 on chip, pH 7.4. The procedure: as §1
Take B1: the Kd came out at 18.7 nM.

The molecule B2 gave a Kd of 1.62 nM.

As to B3, binding was characterised by a dissociation constant (Kd) of 12.4 nM.

B4 registered a Kd of 4.9 nM.

Molecule B5 came in with a Kd of 1.39 nM.

In turn, B6 registered a Kd of 2.27 nM.

Regarding B7, the Kd is 7.85 nM.

Molecule B8 returned a Kd of 5.36 nM.

Take B9: the Kd amounted to 4.51 nM.

Consider B10, for which the Kd amounted to 2.21 nM.

Turning to B11, binding was characterised by a dissociation constant (Kd) of 5.33 nM.

Regarding B12, the Kd is 4.85 nM.

For the next experiment the target is unchanged. Briefly: SPR steady state, biotin-IGF2 on chip, pH 7.4. The source holds these as a separate data set.
Excerpt: as §2
as §1, with “average.” for “average. Thermodynamic data was performed across the temperature range of 10° C. to 30° C., van't Hoff and Erying plots generated and ΔH, −TΔS and ΔG values determined as previously described.”
For B13, the Kd was over 200 nM.

On to B14, for which the Kd is over 200 nM.

On to B15, for which binding was characterised by a dissociation constant (Kd) of 29.7 nM.

The molecule B16 yielded a Kd of 7.93 nM.

B17 came in with a Kd of 12.8 nM.

As to B18, binding was characterised by a dissociation constant (Kd) of 52.4 nM.

Turning to B19, the Kd is over 100 nM.

The molecule B20 had a Kd of 84.7 nM.

As to B21, the Kd worked out at 9.34 nM.

Molecule B22 had a Kd of 19.9 nM.

B23 gave a Kd of over 200 nM.

As to B24, the affinity, expressed as Kd, was 4.84 nM.

With B25, binding was characterised by a dissociation constant (Kd) of 53.5 nM.
